Paper PMC6695731, “Application of a Substrate-Mediated Selection with c-Src Tyrosine Kinase to a DNA-Encoded Chemical Library” (Molecules, 2019)
Where two headings read alike, the source gives them in different places. Blank lines part the entries; values can stand above or below the compound they belong to.

What was measured:
c-Src [1] = conditions: cited from earlier work
c-Src [2] = molecular target: T1, c-Src (Homo sapiens, UniProt P12931); assay: ADP-Glo assay of compounds as c-Src substrates (ADP production); assay type: biochemical; conditions: for activity as substrate in ADP-Glo assay (words): SrcDEL10 derivatives compared with parental compound; for Vmax / Km: Table S3, ADP-Glo assay of SrcDEL10 derivatives, enzyme Src
Procedure: (§1) Hit molecules were initially characterized as substrates for c-Src using the luciferase-based ADP-Glo assay (Promega). All six molecules appeared to be efficient substrates for Src kinase.
(§2) Kinase reaction was performed as follows 1x kinase buffer (25 mM Tris-HCl (pH 7.5), 2 mM dithiothreitol (DTT), 0.1 mM Na3VO4, 10 mM MgCl2), 1 mM ATP, different concentrations (1 μM to 100 μM) of substrates (either off DNA or on DNA hit molecules), and 12 nM rSrc by incubation for 2 h at 30 °C. After that, distinct 55mers were annealed to each kinase reaction, as previously described. The annealed reactions were incubated with anti Pho-Tyr loaded protein G magnetic bead at RT for 30 min. After washing by three times 20 μL 1xPBST with 1 mg/mL BSA, 1 mg/mL tRNAs), the captured samples were eluted by 20 μL of 1 mM phenylphosphate. The resulting supernatant was then used as a template in qPCR.
(§3) After the kinase reaction was performed as previous section, the reaction mixture (5 μL) was incubated with 5 µL of ADP-Glo™ reagent at RT for 40 min and then add 10 µL of kinase detection reagent at RT for 1 h. The luminescence was measure by plate reader.

[3] = tested on: C[C@H](NC(=O)c1ccc(CN(CC2CC2)C(=O)CCO)cc1)C(=O)N(CCc1ccc(O)cc1)CC(N)=O; assay: as above; assay type: biochemical; conditions: other: Table S3, ADP-Glo assay of SrcDEL10 derivatives, enzyme Src; pH 7.5; 30.0 °C
Procedure: as §1, §2, §3

[4] = tested on: N=C(N)NCCC[C@H](NC(=O)CN(Cc1ccco1)C(=O)CCO)C(=O)N(CCc1ccc(O)cc1)Cc1ccc(C(N)=O)cc1; assay: as above; assay type: biochemical; conditions: other: ADP-Glo assay, compound as substrate of c-Src; pH 7.5; 30.0 °C
Procedure: as §1, §2, §3

[5] = tested on: NC(=O)C(Cc1ccc(O)cc1)NC(=O)CN(CCCCCCO)C(=O)C1Cc2ccccc2N1C(=O)CCc1ccc(O)cc1; assay: as above; assay type: biochemical; conditions: other: ADP-Glo assay, compound as substrate of c-Src; pH 7.5; 30.0 °C
Procedure: as §1, §2, §3

[6] = tested on: NC(=O)C(Cc1cccnc1)NC(=O)CN(CCc1ccc(O)cc1)C(=O)C1Cc2c([nH]c3ccccc23)CN1C(=O)CCO; assay: as above; assay type: biochemical; conditions: other: ADP-Glo assay, compound as substrate of c-Src; pH 7.5; 30.0 °C
Procedure: as §1, §2, §3

[7] = tested on: NC(=O)C1Cc2ccc(O)cc2CN1C(=O)C(CC(=O)O)NC(=O)c1ccc(CN(CC2CC2)C(=O)CCO)cc1; assay: as above; assay type: biochemical; conditions: other: Table S3, ADP-Glo assay of SrcDEL10 derivatives, enzyme Src; pH 7.5; 30.0 °C
Procedure: as §1, §2, §3

[8] = tested on: NC(=O)CN(CCCCCCO)C(=O)c1ccc(CNC(=O)[C@H](Cc2ccc(O)cc2)NC(=O)CCc2ccc(O)cc2)cc1; assay: as above; assay type: biochemical; conditions: other: ADP-Glo assay, compound as substrate of c-Src; pH 7.5; 30.0 °C
Procedure: as §1, §2, §3

[9] = tested on: NC(=O)CN(CCc1ccc(O)cc1)C(=O)[C@H](CC(=O)O)NC(=O)c1ccc(CN(CC2CC2)C(=O)CCO)cc1; assay: as above; assay type: biochemical; conditions: other: ADP-Glo assay, compound as substrate of c-Src; pH 7.5; 30.0 °C
Procedure: as §1, §2, §3

[10] = tested on: NC(=O)CN(CCc1ccc(O)cc1)C(=O)[C@H](CC(=O)O)NC(=O)c1cccc(CN(CC2CC2)C(=O)CCO)c1; assay: as above; assay type: biochemical; conditions: other: Table S3, ADP-Glo assay of SrcDEL10 derivatives, enzyme Src; pH 7.5; 30.0 °C
Procedure: as §1, §2, §3

[11] = tested on: NC(=O)CN(CCc1ccc(O)cc1)C(=O)[C@H](CCC(=O)O)NC(=O)c1ccc(CN(CC2CC2)C(=O)CCO)cc1; assay: as above; assay type: biochemical; conditions: other: Table S3, ADP-Glo assay of SrcDEL10 derivatives, enzyme Src; pH 7.5; 30.0 °C
Procedure: as §1, §2, §3

[12] = tested on: NC(=O)CN(CCc1ccccc1)C(=O)[C@H](CC(=O)O)NC(=O)c1ccc(CN(CC2CC2)C(=O)CCO)cc1; assay: as above; assay type: biochemical; conditions: pH 7.5, 30.0 °C
Procedure: as §1, §2, §3

[13] = tested on: NC(=O)[C@H](Cc1ccc(O)cc1)NC(=O)[C@H](CC(=O)O)NC(=O)c1ccc(CN(CC2CC2)C(=O)CCO)cc1; assay: as above; assay type: biochemical; conditions: other: Table S3, ADP-Glo assay of SrcDEL10 derivatives, enzyme Src; pH 7.5; 30.0 °C
Procedure: as §1, §2, §3

[14] = tested on: NC(=O)[C@H](Cc1cccnc1)NC(=O)CN(CC1CC1)C(=O)CCc1ccc(O)cc1; assay: as above; assay type: biochemical; conditions: other: ADP-Glo assay, compound as substrate of c-Src; pH 7.5; 30.0 °C
Procedure: as §1, §2, §3

[15] = tested on: O=C(O)C[C@H](NC(=O)c1ccc(CN(CC2CC2)C(=O)CCO)cc1)C(=O)NCCc1ccc(O)cc1; assay: as above; assay type: biochemical; conditions: other: Table S3, ADP-Glo assay of SrcDEL10 derivatives, enzyme Src; pH 7.5; 30.0 °C
Procedure: as §1, §2, §3

c-Src [16] = molecular target: T1, c-Src; assay: NADH-based coupled enzyme assay detecting ADP generation; assay type: biochemical; conditions: 1 mM ATP, 100 µM compound, 12 nM Src, 30 °C, 3 h
Procedure: To confirm this, compounds were tested with an NADH-based, coupled enzyme assay that also detects ADP generation. […] This additionally supported that the ADP-Glo activity observed was due to activation of ATP hydrolysis and not phosphotransfer to these compounds.
Kinase reaction was performed as follows 1x kinase buffer (25 mM Tris-HCl (pH 7.5), 2 mM dithiothreitol (DTT), 0.1 mM Na3VO4, 10 mM MgCl2), 1 mM ATP, 100 μM peptides and 12 nM Src at 30 °C for 3 h. The kinase reaction mixture was incubated with 30 unit/mL lactic dehydrogenase (LDH), 20 unit/mL pyruvate kinase (PK), 2 mM phosphoenolpyruvate (PEP), and 1 mM NADH. The absorbance of NADH was monitored at 340 nm.
Figure S8. NADH Coupled Assay of Hit Molecules with c-Src. Samples were composed of 1 mM ATP,
100 µM putative substrate molecules, and 12 nM c-Src kinase at 30 C for 3 hours. Full method description
is provided in Methods and Materials 4.6 NADH assay.

c-Src [17] = molecular target: T1, c-Src; assay: radiolabel (32P-ATP) inhibition assay of LYNtide phosphorylation by c-Src; assay type: biochemical; conditions: 32P-ATP 50 µM, biotinylated-LYNtide 50 µM
Procedure: The original six off-DNA hits were tested for inhibition of c-Src activity. For these tests, we used ^32P-ATP as a substrate and detected phosphorylation levels of a biotinylated-LYNtide substrate after adsorption to streptavidin coated membranes. This assay should not be affected by activation of ATP hydrolysis or phosphotransfer to the small molecules. […] There was no apparent correlation of these values to the Km or kcat values in the prior assays as substrates.
Each hit molecule was preincubated with 1.2 nM c-Src at 30 °C for 30 min. The kinase reaction was initiated with the addition of 50 μM LYNtide and 50 μM ATP with 0.15 μCi gamma ^32P ATP at 30 °C for 10 min. The kinase reaction samples (2 µL) were spotted on P81 filter paper consisting of 1.5 cm squares. After air dry, the P81 papers were washed 4 times with 0.5% phosphoric acid for 5 min each. The P81 papers were washed one time with acetone for 5 min. The papers were then allowed to air dry for about 20 min. The dried P81 papers were analyzed by liquid scintillation counter.
Figure 6 Inhibition of hit molecules in a radiolabel assay with ^32P-ATP (50 µM) and biotinylated-LYNtide (50 µM) as substrates.

[18] = optimal natural peptide sequence for c-Src, reference not given
[19] = other: Table S3, ADP-Glo assay of SrcDEL10 derivatives, enzyme Src
[20] = c-Src substrates lacking acidic residues, Lam and coworkers

Compound: EEEIYGIFG
Km (c-Src [1]; [18]): 14 µM
kcat (c-Src [1]; [18]): 2.9 s⁻¹

Compound: NC(=O)CN(CCc1ccccc1)C(=O)[C@H](CC(=O)O)NC(=O)c1ccc(CN(CC2CC2)C(=O)CCO)cc1 [Src 10-6]
activity as substrate in ADP-Glo assay (words) (c-Src [2]): comparable substrate to the parental compound

Compound: c-Src (Homo sapiens)
Km [3]: 4.31 µM
kcat [3]: 0.683 s⁻¹
kcat/Km [3]: 9. 52 1/min/uM
Km [4]: 19 µM
kcat [4]: 2.5 s⁻¹
kcat/Km [4]: 130000 M⁻¹ s⁻¹
Km [5]: 18 µM
kcat [5]: 0.533 s⁻¹
kcat/Km [5]: 30000 M⁻¹ s⁻¹
Km [6]: 33 µM
kcat [6]: 5.83 s⁻¹
kcat/Km [6]: 183000 M⁻¹ s⁻¹
Km [7]: 15.4 µM
kcat [7]: 122. 8 1/min
kcat/Km [7]: 7. 95 1/min/uM
Km [8]: 13 µM
kcat [8]: 0.75 s⁻¹
kcat/Km [8]: 55000 M⁻¹ s⁻¹
Km [9]: 18 µM
kcat [9]: 1.37 s⁻¹
kcat/Km [9]: 76700 M⁻¹ s⁻¹
Km [10]: 9.68 µM
kcat [10]: 44. 66 1/min
kcat/Km [10]: 4. 61 1/min/uM
Km [11]: 20.7 µM
kcat [11]: 92. 84 1/min
kcat/Km [11]: 4. 49 1/min/uM
kcat/Km ([12]; other: ADP-Glo assay): 6.9 min⁻¹ µM⁻¹
Km [12, 19]: 21.1 µM
kcat [12, 19]: 144. 9 1/min
kcat/Km [12, 19]: 6. 86 1/min/uM
Km [13]: 4.37 µM
kcat [13]: 89. 33 1/min
kcat/Km [13]: 20. 56 1/min/uM
Km [14]: 28 µM
kcat [14]: 1.43 s⁻¹
kcat/Km [14]: 50000 M⁻¹ s⁻¹
Km [15]: 3.79 µM
kcat [15]: 24. 21 1/min
kcat/Km [15]: 6. 39 1/min/uM

Vmax (c-Src [2]): 0.382 µM/min
Compound: O=C(O)C[C@H](NC(=O)c1ccc(CN(CC2CC2)C(=O)CCO)cc1)C(=O)NCCc1ccc(O)cc1 [Src 10-3]

Km (c-Src [2]): > 100 µM
Compound: NC(=O)CN(Cc1cccc(O)c1)C(=O)[C@H](CC(=O)O)NC(=O)c1ccc(CN(CC2CC2)C(=O)CCO)cc1 [Src 10-10]

Vmax (c-Src [2]): 0.54 µM/min
Compound: NC(=O)CN(CCc1ccc(O)cc1)C(=O)[C@H](CC(=O)O)NC(=O)c1cccc(CN(CC2CC2)C(=O)CCO)c1 [Src 10-4]

activity as substrate in ADP-Glo assay (words) (c-Src [2]; listed as 10–8): lacked activity altogether
activity as substrate in ADP-Glo assay (words) (c-Src [2]; listed as Src-10-8): No activity
Km (c-Src [2]): > 100 µM
Compound: CCCN(Cc1ccc(C(=O)N[C@@H](CC(=O)O)C(=O)N(CCc2ccc(O)cc2)CC(N)=O)cc1)C(=O)CCO [Src 10-8]

Vmax (c-Src [2]): 0.492 µM/min
Compound: C[C@H](NC(=O)c1ccc(CN(CC2CC2)C(=O)CCO)cc1)C(=O)N(CCc1ccc(O)cc1)CC(N)=O [Src 10-2]

ADP generation relative to compound (c-Src [16]): little turnover
IC50 (c-Src [17]): 18 µM
Compound: NC(=O)CN(CCCCCCO)C(=O)c1ccc(CNC(=O)[C@H](Cc2ccc(O)cc2)NC(=O)CCc2ccc(O)cc2)cc1 [SrcDEL14]

ADP generation relative to compound (c-Src [16]): large molar excess
IC50 (c-Src [17]): 64 µM
Compound: NC(=O)C(Cc1cccnc1)NC(=O)CN(CCc1ccc(O)cc1)C(=O)C1Cc2c([nH]c3ccccc23)CN1C(=O)CCO (centres unmarked) [SrcDEL5]

ADP generation relative to compound (c-Src [16]): little turnover
IC50 (c-Src [17]): 26 µM
Compound: NC(=O)C(Cc1ccc(O)cc1)NC(=O)CN(CCCCCCO)C(=O)C1Cc2ccccc2N1C(=O)CCc1ccc(O)cc1 (centres unmarked) [SrcDEL16]

Km (c-Src [2]): > 100 µM
Compound: CC(=O)N(Cc1ccc(C(=O)N[C@@H](CC(=O)O)C(=O)N(CCc2ccc(O)cc2)CC(N)=O)cc1)CC1CC1 [Src 10-9]

Compound: GIYWHHY [efficient c-Src peptide substrate lacking acidic residues]
Km (c-Src [1]; [20]): 21 µM

Compound: YIYGSFK [efficient c-Src peptide substrate lacking acidic residues]
Km (c-Src [1]; [20]): 55 µM

ADP generation relative to compound (c-Src [16]): large molar excess
IC50 (c-Src [17]): 96 µM
Compound: N=C(N)NCCC[C@H](NC(=O)CN(Cc1ccco1)C(=O)CCO)C(=O)N(CCc1ccc(O)cc1)Cc1ccc(C(N)=O)cc1 [SrcDEL8]

ADP generation relative to compound (c-Src [16]): large molar excess
Compound: NC(=O)[C@H](Cc1cccnc1)NC(=O)CN(CC1CC1)C(=O)CCc1ccc(O)cc1 [SrcDEL21]
